# Measured values reported in patent US20210270842A1 (DYAX, published 2021).
# T1: intact high molecular weight kininogen (HMWK) (Homo sapiens, UniProt P01042 19-644)
# T1 construct: also called intact HMWK; 1-chain HMWK
# T1 sequence: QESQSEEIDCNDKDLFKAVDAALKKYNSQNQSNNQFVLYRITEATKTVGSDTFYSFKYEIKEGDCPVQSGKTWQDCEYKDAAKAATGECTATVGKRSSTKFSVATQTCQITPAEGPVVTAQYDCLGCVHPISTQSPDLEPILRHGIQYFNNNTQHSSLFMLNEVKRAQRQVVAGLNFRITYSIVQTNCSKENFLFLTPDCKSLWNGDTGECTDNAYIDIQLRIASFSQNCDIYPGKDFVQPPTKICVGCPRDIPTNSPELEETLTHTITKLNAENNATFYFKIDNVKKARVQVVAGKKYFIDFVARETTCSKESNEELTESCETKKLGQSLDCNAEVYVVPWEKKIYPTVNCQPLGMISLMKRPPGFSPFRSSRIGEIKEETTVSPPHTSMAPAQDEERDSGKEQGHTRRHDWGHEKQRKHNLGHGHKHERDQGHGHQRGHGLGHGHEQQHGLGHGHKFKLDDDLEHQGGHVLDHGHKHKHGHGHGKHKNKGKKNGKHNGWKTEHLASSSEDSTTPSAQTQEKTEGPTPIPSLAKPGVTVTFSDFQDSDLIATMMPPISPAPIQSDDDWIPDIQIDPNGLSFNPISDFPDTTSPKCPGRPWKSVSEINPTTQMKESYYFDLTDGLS
# Target: T1, intact high molecular weight kininogen …
# Experiment: ELISA: Fab coated on 96-well plate, LowCross block, biotinylated antigen, streptavidin-HRP; signal over uncoated well
# Experimental: Thirty-six purified Fab clones (see Table 2 below) were assessed for binding to cleaved HWMK, intact HMWK, and LWMK using the immunoassay described in Example 1. Specifically, each of the purified Fab clones was immobilized on 96-well assay plates at a concentration of […]) in a total volume of 100 μL in PBS and incubated overnight at 2-8° C. The assay plates were blocked using LowCross blocking buffer. Biotinylated intact HMWK, biotinylated cleaved HMWK or biotinylated LMWK ([…]) was added to each well in a total volume of 100 μL and incubated for 2 hours prior to washing with a wash buffer. HRP-labeled streptavidin was added to each well at a concentration of 100 ng/mL, and the signal was developed using Ultra TMB Substrate. The signal to noise ratio was calculated using the signal observed upon the addition of the biotinylated protein to an uncoated well. (FIG. 2, panels A and B). Based on the ELISA results, the antibodies can be divided among 5 categories (Table 2).
row,Binder,binding result
1,"559B-M0039-G07 (Fab, V domains shown) VH: EVQLLESGGGLVQPGGSLRLSCAASGFTFSRYRMRWVRQAPGKGLEWVSGISPSGGWTYYADSVKGRFTISRDNSKNTLYLQMNSLRAEDTAVYYCTTDNGDYALAHWGQGTLVTVSS VL: DIQMTQSPSSLSASVGDRVTITCRASQRIINYLNWYQQKPGKAPKLLIYAASSLQSGVPSRFSGSGSGTDFTLTISSLQPEDFATYYCQQSYSAPLTFGGGTRVEIK",binds
2,"559B-M0003-A08 (Fab, V domains shown) VH: EVQLLESGGGLVQPGGSLRLSCAASGFTFSAYVMRWVRQAPGKGLEWVSSIGSSGGPTYYADSVKGRFTISRDNSKNTLYLQMNSLRAEDTAVYYCARRGGSGSSHAFDIWGQGTMVTVSS VL: DIQMTQSPSSLSASVGDRVTITCRASQSISSYLNWYQQKPGKAPKLLIYAASSLQSGVPSRFSGSGSGTDFTLTISSLQPEDSGTYYCQQYNSFPLTFGGGTKVEIK",binds
3,"559B-M0054-B11 (Fab, V domains shown) VH: EVQLLESGGGLVQPGGSLRLSCAASGFTFSYYGMNWVRQAPGKGLEWVSVISPSGGLTVYADSVKGRFTISRDNSKNTLYLQMNSLRAEDTAMYYCATGFAVQHGGGAFDIWGQGTMVTVSS VL: DIQMTQSPATLSMSPGERATLSCRASQSVTTYLAWYQQKPGQAPRLLIYDASIRATGVPARFSGSGSGTDFTLTISRLEPEDFAVYYCQQRTIWPLTFGGGTKVEIK",binds
4,"559B-M0067-G11 (Fab, V domains shown) VH: EVQLLESGGGLVQPGGSLRLSCAASGFTFSPYEMVWVRQAPGKGLEWVSSIVPSGGWTVYADSVKGRFTISRDNSKNTLYLQMNSLRAEDTAVYYCASPSGRGLAFDIWGQGTMVTVSS VL: DIQMTQSPGTLSLSPGERATLSCRASQSISSSYLAWYQQKPGQAPRLLIYGASSRATGVPDRFSGSGSGTEFTLTISSLQPEDFATYYCLQQKSYPYTFGQGTKVEIK",binds
5,"559B-M0035-F05 (Fab, V domains shown) VH: EVQLLESGGGLVQPGGSLRLSCAASGFTFSHYPMAWVRQAPGKGLEWVSGIVSSGGRTVYADSVKGRFTISRDNSKNTLYLQMNSLRAEDTAVYYCARDPYDFWSEGAFDIWGQGTMVTVSS VL: QSVLTQPPSASGTPGQRVTISCSGSSSNIGNNFVYWYHQVPGTAPKLLIYKNNQRPSGVPDRFSGSKSAASASLAISGLRSEDEADYYCAAWDNSLSGFYVFGAGTKVTVL",binds
6,"559B-M0068-D01 (Fab, V domains shown) VH: EVQLLESGGGLVQPGGSLRLSCAASGFTFSIYPMSWVRQAPGKGLEWVSGISPSGGKTAYADSVKGRFTISRDNSKNTLYLQMNSLRAEDTAVYYCARGQGRAVRGKLYYYGMDVWGQGTTVTVSS VL: QSALTQPPSASQTPGQTVTISCSGSSSNIGTNNVNWYQQLPGTAPKLLISSHHRRPSGVPDRFSASKSGTSASLAISGLQSEDEADYYCAAWDDSLNGPVFGGGTKLTVL",binds
7,"559B-M0069-C09 (Fab, V domains shown) VH: EVQLLESGGGLVQPGGSLRLSCAASGFTFSMYDMHWVRQAPGKGLEWVSSISSSGGYTQYADSVKGRFTISRDNSKNTLYLQMNSLRAEDTAMYYCARDRGLIAAAGGFDPWGQGTLVTVSS VL: DIQMTQSPSSLSASVGDRVTITCRASQSIGIYLNWYQQKPGTAPKLLIYAASSLQSGVPSRFTGSGSGTDFTLTISSLQPDDFATYYCQRTYGRPLTFGGGTKVEIK",binds
8,"559B-M0004-E08 (Fab, V domains shown) VH: EVQLLESGGGLVQPGGSLRLSCAASGFTFSMYHMNWVRQAPGKGLEWVSSIYSSGGSTRYADSVKGRFTISRDNSKNTLYLQMNSLRAEDTAVYYCARGVRYGMDVWGQGTTVTVSS VL: DIQMTQSPSSVSASVGDRVTITCRASQGISSWLAWYQQKPGKAPKLLIYAASSLQSGVPSRFSGSGSGTDFTLTISSLQPEDFATYYCQQANSFPITFGQGTRLEIK",binds
9,"559B-M0035-H09 (Fab, V domains shown) VH: EVQLLESGGGLVQPGGSLRLSCAASGFTFSWYGMHWVRQAPGKGLEWVSRIGPSGGPTSYADSVKGRFTISRDNSKNTLYLQMNSLRAEDTAVYYCARGYYGTGRYFQHWGQGTLVTVSS VL: DIQMTQSPDSLSLSPGDRATLSCRASQSVGSDYLAWYQQKPGQAPRLLIYDASNRATGIPARFSGSGSGTDFTLTISSLEPEDFAVYYCQQRSNWPPTFGGGTKVEIK",binds
10,"559B-M0065-B10 (Fab, V domains shown) VH: EVQLLESGGGLVQPGGSLRLSCAASGFTFSKYFMTWVRQAPGKGLEWVSWISSSGGYTNYADSVKGRFTISRDNSKNTLYLQMNSLRAEDTAVYYCARGAYYYDAFDIWGQGTMVTVSS VL: DIQMTQSPSSLSASVGDRVTITCRASQSIAIFLNWYQQTPGKPPKLLIYGASTLQSGVPSRFSGSGSGADFTLTISNLQLEDFTTYYCQQSYSTLYTFGQGTKLEIK",binds
11,"559B-M0043-C06 (Fab, V domains shown) VH: EVQLLESGGGLVQPGGSLRLSCAASGFTFSAYAMRWVRQAPGKGLEWVSYISSSGGETMYADSVKGRFTISRDNSKNTLYLQMNSLRAEDTAVYYCANGYGRIDYWGQGTLVTVSS VL: QSVLTQPASVSGSPGQSITISCTGTSSDIGGYNYVSWYQQHPGKAPKLMIYEVSNRPSGVSNRFSGSKSGNTASLTISGLQAEDEADYYCSSYTSGSTRVFGTGTRVTVL",binds

# Target: T1, intact high molecular weight kininogen …
# Experiment: Fab passively immobilized on 384-well plate, biotinylated antigen, streptavidin-HRP
# Excerpt: A: plots the ratio of the result of a 2-chain HWMK binding assay to a LMWK binding assay on the y-axis compared to the ratio of the result of a 2-chain HMWK binding assay to a 1-chain HMWK binding assay on the x-axis for each antibody (Fab) tested. Recombinant Fab fragments were passively immobilized onto 384-well plates prior to addition of biotinylated 2-chain HMWK, 1-chain HMWK, or LMWK, followed by streptavidin-HRP.
# The depleted library was then contacted with biotinylated 2-chain HMWK immobilized on streptavidin coated magnetic beads. The beads were extensively washed with PBS buffer and used to infect E. coli for phage output amplification to complete a round of selection. Three rounds of selection were performed prior to screening individual phage colonies by ELISA with biotinylated 1-chain and 2-chain HMWK immobilized on streptavidin coated plates followed by detection with horse radish peroxidase (HRP) conjugated anti-M13 antibody and absorbance detection due to substrate hydrolysis for 3,3′,5,5′-Tetramethylbenzidine (TMB). […] The specificity of each purified Fab was determined by coating 384 well plates and measuring binding to biotinylated 1-chain HMWK, to biotinylated 2-chain HMWK, or to biotinylated LMWK, followed by detection with streptavidin conjugated to HRP and TMB detection.
row,Binder,binding result
1,"559B-M0064-H02 (Fab, V domains shown, Purified recombinant Fab; …GQPKANP)) VH: EVQLLESGGGLVQPGGSLRLSCAASGFTFSQYIMGWVRQAPGKGLEWVSSIGSSGVTVYADSVKGRFTISRDNSKNTLYLQMNSLRAEDTAVYYCARGGGVTVLHAFDIWGQGTMVTVSS VL: QSALTQPASVSGSPGQSITISCTGTSSDVGGYNYVSWYQQHPGKVPKLIIYEGNKRPSGVPDRFSGSKAGNTASLTVSGLQAEDEADYYCTAYGGHSRFYVFGTGTKVTVLG",binds
2,"559B-M0070-H10 (Fab, V domains shown, also called M070-H10) VH: EVQLLESGGGLVQPGGSLRLSCAASGFTFSTYGMRWVRQAPGKGLEWVSVISPSGGKTNYADSVKGRFTISRDNSKNTLYLQMNSLRAEDTAVYYCARGRPDYYAMDVWGQGTTVTVSS VL: QSALTQPPSASGAPGQRVTISCSGSSSNIGSNTVNWYQKLPGTAPKLLIYYNDRRPSGVPDRFSGSKSGNTASLTISGLQAEDEADYYCAAWDDSLSGPVFGGGTKLTVL",binds
